Reference: patent publication US20220154204A1 (University of California, published 2022)

Molecular target: T1, nYFP-GEF1 (UniProt Q93ZY2 1-548)
T1 construct: BiFC positive control partner; also called RopGEF1; not shown: N-terminal YFP fragment (nYFP) from BiFC vector pSPYNE173
T1 sequence (looked up): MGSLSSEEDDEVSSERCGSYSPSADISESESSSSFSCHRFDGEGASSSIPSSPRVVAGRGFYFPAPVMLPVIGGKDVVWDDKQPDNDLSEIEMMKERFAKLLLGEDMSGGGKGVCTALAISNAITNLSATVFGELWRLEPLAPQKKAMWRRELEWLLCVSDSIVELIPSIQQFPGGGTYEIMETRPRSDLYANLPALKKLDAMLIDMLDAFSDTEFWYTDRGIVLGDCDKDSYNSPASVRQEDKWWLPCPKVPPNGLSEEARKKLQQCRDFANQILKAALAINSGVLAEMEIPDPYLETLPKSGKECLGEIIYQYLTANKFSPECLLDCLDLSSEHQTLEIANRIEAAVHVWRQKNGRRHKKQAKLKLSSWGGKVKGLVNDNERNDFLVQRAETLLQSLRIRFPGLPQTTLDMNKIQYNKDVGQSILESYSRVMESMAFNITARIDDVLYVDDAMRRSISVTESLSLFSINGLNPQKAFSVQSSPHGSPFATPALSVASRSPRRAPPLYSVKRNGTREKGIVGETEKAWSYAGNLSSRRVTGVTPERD
Assay: BiFC in Nicotiana benthamiana leaves, positive control
Method: a, Co-immunoprecipitation experiments using transiently expressed M3Kδ6 and OST1/SnRK2.6 in Arabidopsis mesophyll cell protoplasts. OST1/SnRK2.6-GFP or GFP control co-expressed with M3Kδ6-FLAG were immunoprecipitated with GFP antibodies. Precipitated proteins were analyzed by immunoblots using GFP or FLAG antibody. b and c, BiFC analyses of nYFP-M3Kδ6 (b) or nYFP-M3Kδ7 (c) with OST1/SnRK2.6-cYFP, SnRK2.2-cYFP, 2.4-cYFP and 2.10-cYFP infiltrated in 6-week-old Nicotiana benthamiana leaves. nYFP-GEF1/cYFP-ABI1 combination was used as a positive control. All images are at the same scale. Scale bars=50 μm. d and e, BiFC quantifications measured from maximal projections of z-stacks and normalized over an infiltration control expressing p19 only. BiFC quantifications were analyzed by one-way ANOVA followed by Tukey's tests. Confocal images were acquired using identical settings for each BiFC experiment. Means±s.e.m. (n=45).

binding result: binds
B1: cYFP-ABI1 (enzyme, UniProt P49597 1-434, looked up)
chain: MEEVSPAIAGPFRPFSETQMDFTGIRLGKGYCNNQYSNQDSENGDLMVSLPETSSCSVSGSHGSESRKVLISRINSPNLNMKESAAADIVVVDISAGDEINGSDITSEKKMISRTESRSLFEFKSVPLYGFTSICGRRPEMEDAVSTIPRFLQSSSGSMLDGRFDPQSAAHFFGVYDGHGGSQVANYCRERMHLALAEEIAKEKPMLCDGDTWLEKWKKALFNSFLRVDSEIESVAPETVGSTSVVAVVFPSHIFVANCGDSRAVLCRGKTALPLSVDHKPDREDEAARIEAAGGKVIQWNGARVFGVLAMSRSIGDRYLKPSIIPDPEVTAVKRVKEDDCLILASDGVWDVMTDEEACEMARKRILLWHKKNAVAGDASLLADERRKEGKDPAAMSAAEYLSKLAIQRGSKDNISVVVVDLKPRRKLKSKPLN
notes: BiFC positive control partner; order of tag and protein as the printed name gives it; not shown: C-terminal YFP fragment (cYFP) from BiFC vector pSPYCE(M)
